For one substance, gel band ratio to ARPC2 in the purified Arp2/3-C1A complex (subunit occupancy) results are on record in article PMC7406314.

The target in this assay is ARPC1A-STREP (human) (UniProt Q92747). Description: co-purification of a co-expressed recombinant complex; Arp2/3-C1A complexes with ARPC5, ARPC5L or hybrids co-expressed in Sf21 cells and purified as previously described (Abella et al., 2016); Coomassie-stained gel, band quantification with Fiji normalised to ARPC2; immunoblot of the purified complexes.
UniProt Q92747, sequence (Q92747 whole entry): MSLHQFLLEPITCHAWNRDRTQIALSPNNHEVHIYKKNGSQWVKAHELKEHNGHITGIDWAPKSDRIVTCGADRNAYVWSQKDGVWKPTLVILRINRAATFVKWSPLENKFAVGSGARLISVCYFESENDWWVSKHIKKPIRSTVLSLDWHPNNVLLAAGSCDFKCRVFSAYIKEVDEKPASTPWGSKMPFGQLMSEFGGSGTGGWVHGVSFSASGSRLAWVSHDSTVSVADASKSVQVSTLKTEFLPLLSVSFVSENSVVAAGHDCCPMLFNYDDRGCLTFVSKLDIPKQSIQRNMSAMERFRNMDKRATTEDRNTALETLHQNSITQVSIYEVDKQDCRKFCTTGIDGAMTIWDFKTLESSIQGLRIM

ARPC5L, sequence (Q9BPX5 whole entry): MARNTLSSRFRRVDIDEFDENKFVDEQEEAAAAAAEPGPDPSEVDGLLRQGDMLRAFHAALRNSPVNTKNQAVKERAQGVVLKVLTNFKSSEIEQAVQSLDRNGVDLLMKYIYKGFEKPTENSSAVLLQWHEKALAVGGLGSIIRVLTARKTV

For “ARPC5L (from UniProt Q9BPX5 1-153) (natural protein)”, the gel band ratio to ARPC2 in the purified Arp2/3-C1A complex (subunit occupancy) was found to be 0.52.
